Data taken from IntAct's records for PubMed 20534488.

B1: Ras-related protein Rab-5A (Homo sapiens), P20339-1 (parent)
chain: MASRGATRPNGPNTGNKICQFKLVLLGESAVGKSSLVLRFVKGQFHEFQESTIGAAFLTQTVCLDDTTVKFEIWDTAGQERYHSLAPMYYRGAQAAIVVYDITNEESFARAKNWVKELQRQASPNIVIALSGNKADLANKRAVDFQEAQSYADDNSLLFMETSAKTSMNVNEIFMAIAKKLPKNEPQNPGANSARGRGVDLTEPTQPTRNQCCSN
B2: Ras-related protein Rab-5C (Homo sapiens), P51148 (parent)
chain: MAGRGGAARPNGPAAGNKICQFKLVLLGESAVGKSSLVLRFVKGQFHEYQESTIGAAFLTQTVCLDDTTVKFEIWDTAGQERYHSLAPMYYRGAQAAIVVYDITNTDTFARAKNWVKELQRQASPNIVIALAGNKADLASKRAVEFQEAQAYADDNSLLFMETSAKTAMNVNEIFMAIAKKLPKNEPQNATGAPGRNRGVDLQENNPASRSQCCSN
partner: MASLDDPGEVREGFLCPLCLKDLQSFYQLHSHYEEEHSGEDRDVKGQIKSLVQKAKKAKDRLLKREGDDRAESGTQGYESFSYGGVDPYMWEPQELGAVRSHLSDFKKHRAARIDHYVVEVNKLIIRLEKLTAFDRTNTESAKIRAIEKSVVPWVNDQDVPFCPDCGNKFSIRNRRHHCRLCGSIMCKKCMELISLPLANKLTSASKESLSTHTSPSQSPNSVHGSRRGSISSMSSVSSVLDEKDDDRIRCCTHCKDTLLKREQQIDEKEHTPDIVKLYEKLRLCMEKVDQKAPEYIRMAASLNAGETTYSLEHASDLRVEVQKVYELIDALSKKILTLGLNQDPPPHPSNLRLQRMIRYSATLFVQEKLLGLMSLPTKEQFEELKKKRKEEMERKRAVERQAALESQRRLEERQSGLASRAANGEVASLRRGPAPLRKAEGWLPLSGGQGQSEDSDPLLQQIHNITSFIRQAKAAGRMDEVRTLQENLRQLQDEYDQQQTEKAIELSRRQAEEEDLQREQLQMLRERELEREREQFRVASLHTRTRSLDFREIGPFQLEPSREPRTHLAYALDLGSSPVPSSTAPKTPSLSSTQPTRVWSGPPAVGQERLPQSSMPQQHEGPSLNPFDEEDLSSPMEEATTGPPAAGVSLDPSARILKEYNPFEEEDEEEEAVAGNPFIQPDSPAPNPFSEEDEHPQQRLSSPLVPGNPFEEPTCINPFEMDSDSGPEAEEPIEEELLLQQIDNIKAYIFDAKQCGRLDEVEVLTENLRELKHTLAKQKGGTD
B3: Ras-related protein Rab-5C (Homo sapiens), P51148 (parent)
chain: B2 chain

Variants of: B1
Details: with eea1_human EEA1, Q15075
eea1_human EEA1, Q15075, sequence (Q15075 whole entry): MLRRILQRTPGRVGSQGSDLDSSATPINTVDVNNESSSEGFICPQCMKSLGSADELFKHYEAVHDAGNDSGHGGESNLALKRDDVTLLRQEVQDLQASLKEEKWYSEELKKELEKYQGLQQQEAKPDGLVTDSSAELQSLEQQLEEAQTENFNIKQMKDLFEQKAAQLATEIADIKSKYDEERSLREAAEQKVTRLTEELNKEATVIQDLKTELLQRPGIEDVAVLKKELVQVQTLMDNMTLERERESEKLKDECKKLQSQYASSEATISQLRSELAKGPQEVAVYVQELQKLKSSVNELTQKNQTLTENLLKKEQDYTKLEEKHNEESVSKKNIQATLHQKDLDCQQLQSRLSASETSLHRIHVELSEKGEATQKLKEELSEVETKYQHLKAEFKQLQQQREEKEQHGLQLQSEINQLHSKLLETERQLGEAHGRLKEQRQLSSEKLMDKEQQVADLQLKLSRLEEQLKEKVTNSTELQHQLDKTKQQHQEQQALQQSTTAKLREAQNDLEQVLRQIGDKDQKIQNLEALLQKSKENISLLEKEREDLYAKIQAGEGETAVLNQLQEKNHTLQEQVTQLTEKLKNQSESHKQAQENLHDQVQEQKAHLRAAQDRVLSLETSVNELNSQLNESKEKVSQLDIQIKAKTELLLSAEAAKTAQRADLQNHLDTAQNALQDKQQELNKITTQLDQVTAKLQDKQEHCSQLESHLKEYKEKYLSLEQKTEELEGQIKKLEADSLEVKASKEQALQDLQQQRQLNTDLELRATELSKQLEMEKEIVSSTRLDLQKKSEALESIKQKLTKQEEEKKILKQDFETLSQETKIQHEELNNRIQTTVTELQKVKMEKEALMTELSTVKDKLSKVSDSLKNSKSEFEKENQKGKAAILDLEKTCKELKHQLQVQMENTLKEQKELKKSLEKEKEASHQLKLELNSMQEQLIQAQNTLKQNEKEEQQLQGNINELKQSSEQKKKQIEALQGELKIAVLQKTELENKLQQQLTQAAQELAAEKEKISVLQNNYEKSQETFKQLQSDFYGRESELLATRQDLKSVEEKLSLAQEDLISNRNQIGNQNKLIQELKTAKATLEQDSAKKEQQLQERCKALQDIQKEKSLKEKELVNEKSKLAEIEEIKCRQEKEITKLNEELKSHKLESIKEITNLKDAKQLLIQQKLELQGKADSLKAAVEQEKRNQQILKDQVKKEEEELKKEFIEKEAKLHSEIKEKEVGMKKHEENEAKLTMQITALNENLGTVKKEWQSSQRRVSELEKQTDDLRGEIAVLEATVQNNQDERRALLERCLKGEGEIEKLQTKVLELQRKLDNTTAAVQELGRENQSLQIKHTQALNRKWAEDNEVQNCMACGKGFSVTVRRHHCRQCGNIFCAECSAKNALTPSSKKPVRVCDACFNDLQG

| Variant | effect of a mutation on the interaction |
| --- | --- |
| Q79L | with no effect |

Variants of: B2
Details: with rbns5_human RBSN

| Variant | effect of a mutation on the interaction |
| --- | --- |
| E51N | decreasing interaction strength |
| Y83F | with no effect |
| S52P | decreasing interaction strength |
| Q50I | with no effect |
| A94S | increasing interaction strength |
| A57S | decreasing interaction strength |
| A57D | disrupting interaction strength |
| H84R | decreasing interaction strength |
| K43E | disrupting interaction strength |
| Q61K | with no effect |
| L59M | with no effect |
| E48P | with no effect |
| Y49N | with no effect |
| E73L | with no effect |

Variants of: B3
Details: with eea1_human EEA1, Q15075

| Variant | effect of a mutation on the interaction |
| --- | --- |
| M89S | disrupting interaction strength |
| M89A | disrupting interaction strength |
| A57E | disrupting interaction strength |
| A57S | disrupting interaction strength |
| A57D | decreasing interaction strength |
| G55Q | disrupting interaction strength |
